Results as given in paper PMC2955809 (Structure (London, England : 1993), 2010).

Molecular target: the molecule itself
Assay: SEC

B1: R.Eco29kI restriction endonuclease, E142Q (enzyme, E. coli strain 29K (plasmid pECO29), UniProt Q46944 1-214, looked up)
chain: MHNKKFDRSEHVYRNDSFLELIKDAVRFFSGTPVHSLPPPERFQGAGVYALYYTGHYSLYDEYSRINRLAYNLPIYVGKAVPAGWRQSRISDHETRAGSELSNRIREHGRNIAKTSNLDLCDFSCRFVIFEATGSDMISTVQAALIKIYKPLWNTVVDGFGNHTPGAGRFAQAKSDWDVIHPGREWAEKCTGVHSEPYFIEERIKQYFSKSNFT
stoichiometry N: 2
